Assay in all cases: co-IP
For assay [1], the target named is σ2-eGFP (AP2S1 with C-terminal eGFP) (UniProt P62744).
Assay [2] has as its target μ2-eGFP (rat AP2M1 with internal HA tag and eGFP) (rat) (UniProt P84092).
The target of assay [3] is α-eGFP (hybrid mouse α-adaptin with eGFP inserted into the hinge region) (mouse) (UniProt P17427).

Chain of UniProt P62744 (P62744 whole entry): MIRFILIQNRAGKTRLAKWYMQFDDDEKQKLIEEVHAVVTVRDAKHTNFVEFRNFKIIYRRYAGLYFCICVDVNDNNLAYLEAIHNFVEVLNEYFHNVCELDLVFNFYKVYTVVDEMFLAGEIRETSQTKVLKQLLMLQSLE
Chain of UniProt P84092 (P84092 whole entry): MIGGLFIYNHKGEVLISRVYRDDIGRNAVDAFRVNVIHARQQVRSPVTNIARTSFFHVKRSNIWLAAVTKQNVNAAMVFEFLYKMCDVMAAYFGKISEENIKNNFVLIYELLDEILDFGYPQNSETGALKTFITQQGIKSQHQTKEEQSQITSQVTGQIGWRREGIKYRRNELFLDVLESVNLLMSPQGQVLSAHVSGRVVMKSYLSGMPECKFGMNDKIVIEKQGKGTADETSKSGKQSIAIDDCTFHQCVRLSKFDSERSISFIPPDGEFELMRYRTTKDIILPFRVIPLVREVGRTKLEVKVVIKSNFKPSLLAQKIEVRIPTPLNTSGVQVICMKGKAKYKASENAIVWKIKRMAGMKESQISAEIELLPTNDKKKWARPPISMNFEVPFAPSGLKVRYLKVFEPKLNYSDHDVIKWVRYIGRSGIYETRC

With “endogenous α subunit of AP2 (α-adaptin) (from UniProt O94973 1-939) (natural protein)”, the percent of the endogenous subunit pulled down in assay [1] was found to be 98.7%; in assay [2], 94.1%.
As for “endogenous μ2 subunit of AP2 (from UniProt Q96CW1 1-435) (natural protein)”, the percent of the endogenous subunit pulled down in assay [3] is 99.3%; in assay [1], 79.5%.
As for “endogenous σ2 subunit of AP2 (from UniProt P53680 1-142) (natural protein)”, the values for the percent of the endogenous subunit pulled down in assay [3] and in assay [2] were 78.8% and 68%, respectively.

(Values after publication PMC7495412.)
